Consider two molecules from patent US20240141039A1 (AGENUS, published 2024).

One may read the Kd as the constant that tells how readily two partners part at equilibrium. A word on the koff: it is the rate constant with which the complex falls apart. For orientation: kon means a measure of how fast the partners come together. One may read the EC50 as the concentration that produces a half-maximal response. One may read the IC50 as the point on the concentration scale where inhibition reaches its midpoint.

The target of assay [1] is T1, full-length isoform 2 ECD of human CD96 with a C89S mutation (His-tagged) (human, UniProt P40200 22-519).
T1 construct: also called His-tagged isoform 2 of human CD96 with a C89S mutation; human CD96 extracellular domain isoform 2 C89S
T1 sequence: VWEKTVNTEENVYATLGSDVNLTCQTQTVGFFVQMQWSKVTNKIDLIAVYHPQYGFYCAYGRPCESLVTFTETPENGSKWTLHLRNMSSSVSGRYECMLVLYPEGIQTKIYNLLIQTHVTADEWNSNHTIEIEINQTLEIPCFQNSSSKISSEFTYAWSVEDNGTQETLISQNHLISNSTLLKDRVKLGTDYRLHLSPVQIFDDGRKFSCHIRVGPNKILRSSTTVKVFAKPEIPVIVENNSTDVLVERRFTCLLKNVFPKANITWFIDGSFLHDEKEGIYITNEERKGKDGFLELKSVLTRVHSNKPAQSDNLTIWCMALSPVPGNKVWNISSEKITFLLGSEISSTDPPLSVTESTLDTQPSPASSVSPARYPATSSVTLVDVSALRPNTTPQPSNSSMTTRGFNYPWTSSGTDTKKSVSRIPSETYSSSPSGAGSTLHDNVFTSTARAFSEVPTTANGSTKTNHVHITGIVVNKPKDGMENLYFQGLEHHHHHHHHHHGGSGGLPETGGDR
In words: SPR Biacore T200, Protein A capture, 1:1 model, experiment #1. As for the experimental part: (§1) Briefly, surface plasmon resonance experiments were performed using a Biacore T200 instrument, and the association rate (kₐ), dissociation rate (kd), and dissociation constant (KD) were calculated from each experiment using a 1:1 binding model with Biacore T200 Evaluation Software.
(§2) Multispecific molecules were captured using a 30-sec injection at a flow rate of 10 μl/min to reach about 350 resonance units (RUs). […] The sensor chip was regenerated between cycles with two 30-sec injections of 10 mM glycine, pH 1.5. Sensorgrams were evaluated and fit to a simple Langmuir 1:1 interaction model using the global data analysis option of BIAevaluation 3.0 software. Data quality was verified by visually inspecting deviations and curve fitting, and by evaluating the parameters of Rₘₐₓ, Chi2, and Tc.

For assay [2], the target named is T2, full-length ECD of cynomolgus monkey TIGIT (His-tagged) (cynomolgus monkey).
T2 construct: also called His-tagged cynomolgus monkey TIGIT; cyno TIGIT extracellular domain
Described as above. Here is the method:
as §1, §2

For assay [3], the target named is T1, full-length isoform 2 ECD of human CD96 …. As to the kind of experiment: SPR Biacore T200, Protein A capture, 1:1 model, experiment #2. As for the experimental part:
as §1, §2

In assay [4] the target is T2, full-length ECD of cynomolgus monkey …. The assay is described as above. As for the experimental part:
as §1, §2

In assay [5] the target is T3, wild type full-length cynomolgus monkey TIGIT expressed on CHO cells (cynomolgus monkey, UniProt A0A7N9I9V4 89-312).
T3 construct: whole, on cells; also called cynomolgus TIGIT-CHO cells
As to the kind of experiment: flow cytometry, cynomolgus TIGIT CHO cells, geomean of 2 experiments. On the technique in general: Flow cytometry measures light scatter and fluorescence of single cells or particles in a stream.

In assay [6] the target is T3, wild type full-length cynomolgus monkey …. As to the kind of experiment: flow cytometry, blocking of CD155-Fc-PE binding to cynomolgus TIGIT CHO cells, geomean of 2 experiments.
In assay [7] the target is T4, wild type full-length human CD96 isoform 2 expressed on CHO cells (human, UniProt P40200-2 22-569).
T4 construct: whole, on cells; also called human CD96-CHO (isoform 2); human CD96 (iso2) CHO cells
T4 sequence (looked up): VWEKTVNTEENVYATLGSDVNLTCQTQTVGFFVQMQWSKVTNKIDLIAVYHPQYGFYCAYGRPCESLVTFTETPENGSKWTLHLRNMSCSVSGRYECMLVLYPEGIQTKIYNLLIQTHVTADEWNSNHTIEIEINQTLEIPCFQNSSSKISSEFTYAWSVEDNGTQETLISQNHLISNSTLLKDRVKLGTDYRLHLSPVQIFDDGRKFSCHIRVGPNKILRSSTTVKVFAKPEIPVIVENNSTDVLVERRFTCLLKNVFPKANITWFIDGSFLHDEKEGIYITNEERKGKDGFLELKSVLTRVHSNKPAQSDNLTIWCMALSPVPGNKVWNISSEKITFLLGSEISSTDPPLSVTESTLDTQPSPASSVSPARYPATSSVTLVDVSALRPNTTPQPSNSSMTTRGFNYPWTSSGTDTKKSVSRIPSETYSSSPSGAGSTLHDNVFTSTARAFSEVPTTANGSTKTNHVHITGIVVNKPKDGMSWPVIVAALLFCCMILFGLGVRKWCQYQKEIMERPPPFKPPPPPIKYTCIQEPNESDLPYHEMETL
As to the kind of experiment: flow cytometry, blocking of CD155-Fc-PE binding to human CD96 (isoform 2) CHO cells, geomean of 3 experiments. Here is the method:
A 4× concentrated intermediate stock of each multispecific molecule was prepared in a microplate. Antibodies were serially diluted 1-to-3 in FACS buffer. […] Lastly, 25 μL of wild type human CD96-CHO cells (isoform 2), prepared as described above, were added to each well. After a 30-minute incubation on ice, the cells were washed twice with cold FACS Buffer, and the cells were analyzed by flow cytometry (BD LSR Fortessa Flow Cytometer). The data were analyzed using the FlowJo software by sequentially gating on the FSC-A vs. SSC-A and SSC-H vs. SSC-A. Mean fluorescence intensity (MFI) values for PE were calculated, and the data were plotted by GraphPad Prism software and analyzed as described above.

T3 sequence (A0A7N9I9V4 entry or part of it): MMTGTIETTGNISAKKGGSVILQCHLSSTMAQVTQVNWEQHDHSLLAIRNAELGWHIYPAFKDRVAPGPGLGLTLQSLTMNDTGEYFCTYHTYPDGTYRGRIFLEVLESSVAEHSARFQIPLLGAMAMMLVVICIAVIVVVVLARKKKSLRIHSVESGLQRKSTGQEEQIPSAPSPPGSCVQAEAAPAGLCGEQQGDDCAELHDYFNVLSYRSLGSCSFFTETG

B1: anti-TIGIT×CD96 multispecific molecule BA123 (bispecific antibody, human IgG1, kappa, lambda)
heavy 1: QVQLVQSGAEVKKPGASVKVSCKASGYTFTSYGISWVRQAPGQGLEWMGWISAYNANTNYAQKLQGRVTMTTDTSTSTAYMELRSLRSDDTAVYYCARSAGVLGGMDVWGRGTLVTVSSASTKGPSVFPLAPSSKSTSGGTAALGCLVKDYFPEPVTVSWNSGALTSGVHTFPAVLQSSGLYSLSSVVTVPSSSLGTQTYICNVNHKPSNTKVDKRVEPKSCDKTHTCPPCPAPELLGGPDVFLFPPKPKDTLMISRTPEVTCVVVDVSHEDPEVKFNWYVDGVEVHNAKTKPREEQYNSTYRVVSVLTVLHQDWLNGKEYKCKVSNKALPAPIEKTISKAKGQPREPQVYTLPPSREEMTKNQVSLSCAVKGFYPSDIAVEWESNGQPENNYKTTPPVLDSDGSFFLVSKLTVDKSRWQQGNVFSCSVMHEALHNHYTQKSLSLSPG
light 1: not shown
heavy 2: EVQLVQSGAEVKKPGSSVKVSCKASGYTFASYGISWVRQAPGQGLEWMGGITPFFNRVDVAEKFQGRVTITADKSTSTAYIELSSLRSEDTAVYYCARDLRRGGVGDAFDIWGRGTLVTVSSASTKGPSVFPLAPSSKSTSGGTAALGCLVKDYFPEPVTVSWNSGALTSGVHTFPAVLQSSGLYSLSSVVTVPSSSLGTQTYICNVNHKPSNTKVDKRVEPKSCDKTHTCPPCPAPELLGGPDVFLFPPKPKDTLMISRTPEVTCVVVDVSHEDPEVKFNWYVDGVEVHNAKTKPREEQYNSTYRVVSVLTVLHQDWLNGKEYKCKVSNKALPLPEEKTISKAKGQPREPQVYTLPPSREEMTKNQVSLWCLVKGFYPSDIAVEWESNGQPENNYKTTPPVLDSDGSFFLYSKLTVDKSRWQQGNVFSCSVMHEALHNHYTQKSLSLSPG
light 2: QSALTQPRSVSGSPGQSVTISCTGTSPDVGSHAYRSWYQQHPGKAPKLMIYEVSYRPSGVSNRFSGSKSGNTASLTISGLQAEDEADYYCSSYPPSSATVFGAGTKLTVLGQPKAAPSVTLFPPSSEELQANKATLVCLISDFYPGAVTVAWKADSSPVKAGVETTTPSKQSNNKYAASSYLSLTPEQWKSHRSYSCQVTHEGSTVEKTVAPTEC
notes: copies: 1 + 1 + 1 + 1
With B1, the Kd in assay [1] came out at 79 nM; in assay [2], 4.78 nM; in assay [3] it was 85 nM; in assay [4], 4.27 nM. In addition, the off-rate constant (koff) was 0.00125 s⁻¹ in assay [1], 0.00132 s⁻¹ in assay [2], 0.00083 s⁻¹ in assay [3] and 0.00135 s⁻¹ in assay [4]. In addition, the association rate constant (kon) was determined as 15800 M⁻¹ s⁻¹ in assay [1], 277000 M⁻¹ s⁻¹ in assay [2], 9760 M⁻¹ s⁻¹ in assay [3] and 315000 M⁻¹ s⁻¹ in assay [4]. In assay [5], this molecule registered a 50% effective concentration (EC50) of 0.165 µg/mL. The IC50 is 2.35 µg/mL in assay [6] and 5.63 µg/mL in assay [7].

B2: anti-TIGIT×CD96 multispecific molecule BA127 (bispecific antibody, human IgG1, kappa, lambda)
heavy 1: QVQLVQSGAEVKKPGASVKVSCKASGYTFTTYALHWVRQAPGQRLEWMGWINTGSGDTKYSQKFQGRVTITRDTSASTAYMELSSLRSEDTAVYYCARSLGVYYGMDVWGQGTLVTVSSASTKGPSVFPLAPSSKSTSGGTAALGCLVKDYFPEPVTVSWNSGALTSGVHTFPAVLQSSGLYSLSSVVTVPSSSLGTQTYICNVNHKPSNTKVDKRVEPKSCDKTHTCPPCPAPELLGGPDVFLFPPKPKDTLMISRTPEVTCVVVDVSHEDPEVKFNWYVDGVEVHNAKTKPREEQYNSTYRVVSVLTVLHQDWLNGKEYKCKVSNKALPAPIEKTISKAKGQPREPQVYTLPPSREEMTKNQVSLSCAVKGFYPSDIAVEWESNGQPENNYKTTPPVLDSDGSFFLVSKLTVDKSRWQQGNVFSCSVMHEALHNHYTQKSLSLSPG
light 1: not shown
heavy 2: EVQLVQSGAEVKKPGSSVKVSCKASGYTFASYGISWVRQAPGQGLEWMGGITPFFNRVDVAEKFQGRVTITADKSTSTAYIELSSLRSEDTAVYYCARDLRRGGVGDAFDIWGRGTLVTVSSASTKGPSVFPLAPSSKSTSGGTAALGCLVKDYFPEPVTVSWNSGALTSGVHTFPAVLQSSGLYSLSSVVTVPSSSLGTQTYICNVNHKPSNTKVDKRVEPKSCDKTHTCPPCPAPELLGGPDVFLFPPKPKDTLMISRTPEVTCVVVDVSHEDPEVKFNWYVDGVEVHNAKTKPREEQYNSTYRVVSVLTVLHQDWLNGKEYKCKVSNKALPLPEEKTISKAKGQPREPQVYTLPPSREEMTKNQVSLWCLVKGFYPSDIAVEWESNGQPENNYKTTPPVLDSDGSFFLYSKLTVDKSRWQQGNVFSCSVMHEALHNHYTQKSLSLSPG
light 2: QSALTQPRSVSGSPGQSVTISCTGTSPDVGSHAYRSWYQQHPGKAPKLMIYEVSYRPSGVSNRFSGSKSGNTASLTISGLQAEDEADYYCSSYPPSSATVFGAGTKLTVLGQPKAAPSVTLFPPSSEELQANKATLVCLISDFYPGAVTVAWKADSSPVKAGVETTTPSKQSNNKYAASSYLSLTPEQWKSHRSYSCQVTHEGSTVEKTVAPTEC
notes: Anti-CD96 arm = BA139, anti-TIGIT arm = BA150; copies: 1 + 1 + 1 + 1
Regarding B2, the equilibrium dissociation constant (Kd) in assay [1] worked out at 19.6 nM; in assay [2], 4.29 nM; in assay [3] it was 19.7 nM; in assay [4], 3.7 nM. The koff was 0.00116 s⁻¹ in assay [1], 0.00126 s⁻¹ in assay [2], 0.000796 s⁻¹ in assay [3] and 0.00129 s⁻¹ in assay [4]. Further, the kon in assay [1] is 59200 M⁻¹ s⁻¹; in assay [2] it was 294000 M⁻¹ s⁻¹; in assay [3], 40500 M⁻¹ s⁻¹; in assay [4] it was 348000 M⁻¹ s⁻¹. The molecule also had an EC50 in assay [5] of 0.258 µg/mL. Moreover, the results for the IC50 in assay [6] and in assay [7] were 2.81 µg/mL and 1.99 µg/mL, respectively.
